Results published in PMC12861664 (2025).

Target: coxsackievirus B5 Faulkner strain, purified virus (wild type) (coxsackievirus B5 (CV-B5/Faulkner))
Test: SPR

B1: decay accelerating factor (DAF) protein with tag (receptor)
chain: DCGLPPDVPNAQPALEGRTSFPEDTVITYKCEESFVKIPGEKDSVICLKGSQWSDIEEFCNRSCEVPTRLNSASLKQPYITQNYFPVGTVVEYECRPGYRREPSLSPKLTCLQNLKWSTAVEFCKKKSCPNPGEIRNGQIDVPGGILFGATISFSCNTGYKLFGSTSSFCLISGSSVQWSDPLPECREIYCPAPPQIDNGIIQGERDHYGYRQSVTYACNKGFTMIGEHSIYCTVNNDEGEWSGPPPECRGKSLTSKVPPTVQKPTTVNVPTTEVSPTSQKTTTKTTTPNAQATRSTPVSRTTKHFHETTPNKGSGTTS
**Q.** With B1 as the binder, how does the Kd read?
**A.** The Kd was 5.69 nM.
